# Patent publication US20230117883A1
# Biological target: human transferrin receptor 1 (human) (UniProt P02786)
# Test: Carterra LSA biosensor, 25C; IgG captured on anti-IgG lawn, hTfR1 injected; 1:1 Langmuir fit
# UniProt P02786, sequence (P02786 89-760 limits assumed): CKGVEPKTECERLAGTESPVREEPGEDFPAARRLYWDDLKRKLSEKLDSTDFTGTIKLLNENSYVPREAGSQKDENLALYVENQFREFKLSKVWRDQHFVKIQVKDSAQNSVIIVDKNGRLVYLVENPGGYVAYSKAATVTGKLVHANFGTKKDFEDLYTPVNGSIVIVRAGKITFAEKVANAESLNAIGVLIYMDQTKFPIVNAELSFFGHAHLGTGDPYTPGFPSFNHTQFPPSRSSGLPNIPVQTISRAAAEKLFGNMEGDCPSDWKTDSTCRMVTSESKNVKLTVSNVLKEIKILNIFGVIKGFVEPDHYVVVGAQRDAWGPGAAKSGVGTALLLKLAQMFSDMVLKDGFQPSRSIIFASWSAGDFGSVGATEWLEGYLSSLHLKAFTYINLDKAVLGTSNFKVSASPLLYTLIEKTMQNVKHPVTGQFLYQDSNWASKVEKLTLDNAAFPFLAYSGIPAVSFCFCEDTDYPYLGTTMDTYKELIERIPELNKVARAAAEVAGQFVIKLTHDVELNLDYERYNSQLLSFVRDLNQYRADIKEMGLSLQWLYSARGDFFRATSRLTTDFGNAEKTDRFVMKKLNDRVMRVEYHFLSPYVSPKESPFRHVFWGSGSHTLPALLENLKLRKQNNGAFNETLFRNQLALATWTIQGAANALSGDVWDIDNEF
substance,measurement,value
"OKT9 mIgG (known anti-TfR1 antibody, control)",Kd,0.536 nM
same,kon,774000 M⁻¹ s⁻¹
